The values that follow come from patent US20200102347A1 (AUCTUS BIOLOGIES, published 2020).

No end group written: not given here. *: point of attachment. RhodamineB = CCN(CC)c1ccc2c(-c3ccccc3C(=O)*)c3ccc(=[N+](CC)CC)cc-3oc2c1

First the molecules themselves.
T1: NativeRPtag(large)_with_Tags_and_Cys (Thermoanaerobacter tengcongensis)
T1 construct: Unlabeled in anisotropy assays; coupled through the engineered N-terminal Cys to SulfoLink agarose or maleimide plates in column, pull-down and ELISA assays
T1 chain: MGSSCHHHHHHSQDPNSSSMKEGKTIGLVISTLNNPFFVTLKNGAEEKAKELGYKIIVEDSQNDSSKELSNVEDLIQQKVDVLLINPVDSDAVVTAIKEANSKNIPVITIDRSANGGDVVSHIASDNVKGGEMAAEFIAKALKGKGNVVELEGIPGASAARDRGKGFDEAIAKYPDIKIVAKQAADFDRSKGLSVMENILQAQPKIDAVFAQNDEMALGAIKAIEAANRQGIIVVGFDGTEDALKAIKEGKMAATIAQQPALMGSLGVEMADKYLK

B1: RPtag(small) q21a (peptide)
peptide: RhodamineB-GEKIPNFIPAELKLITKENVA
notes: built here from the native peptide with the stated change
B2: RPtag(small) v20a (peptide)
peptide: RhodamineB-GEKIPNFIPAELKLITKENAQ
notes: as for B1

For the first assay, the target named is T1, NativeRPtag(large)_with_Tags_and_Cys. The assay can be described thus: fluorescence anisotropy.
As to RhodamineB-GEKIPNFIPAELKLITKE [RPtag(small) Cd3], binding was characterised by a dissociation constant (Kd) of 1.2 nM. In other words, the single-digit nanomolar range.

In turn, RhodamineB-GAKIPNFIPAELKLITKENVQ [RPtag(small) e2a] gave an equilibrium dissociation constant (Kd) of 0.1 nM.

Consider RhodamineB-GEKIPNFIPAELKLATKENVQ [RPtag(small) i15a], for which binding was characterised by a dissociation constant (Kd) of 4.5 nM.

The molecule RhodamineB-GEKAPNFIPAELKLITKENVQ [RPtag(small) i4a] returned a Kd of 0.26 nM.

In turn, RhodamineB-GEKIPAFIPAELKLITKENVQ [RPtag(small) n6a] showed a Kd of 0.34 nM.

With RhodamineB-GEKIPNFIAAELKLITKENVQ [RPtag(small) p9a], binding was put at a Kd of 0.18 nM.

RhodamineB-GEKIPNFIPAELKLIAKENVQ [RPtag(small) t16a] registered a dissociation constant Kd of 1.2 nM.

Turning to RhodamineB-GEKIPNFIPAELKLITKANVQ [RPtag(small) e18a], binding was characterised by a dissociation constant (Kd) of 0.056 nM.

RhodamineB-GEKIPNAIPAELKLITKENVQ [RPtag(small) f7a] displayed a dissociation constant (Kd) of 2 nM.

RhodamineB-GEKIPNFAPAELKLITKENVQ [RPtag(small) i8a] registered a Kd of 1.1 nM.

In the case of B1, the Kd was determined as 0.1 nM.

B2 showed a Kd of 0.18 nM. This Kd is about 1.8-fold higher than that of the molecule before.

RhodamineB-GEKIPNFIPAEAKLITKENVQ [RPtag(small) l12a] returned a Kd of 4.7 nM.

On to RhodamineB-GEKIPNFIPAALKLITKENVQ [RPtag(small) e11a], for which the Kd amounted to 0.8 nM. Compared with the last molecule, the Kd is about 5.9-fold lower.

Take RhodamineB-GEKIPNFIPAELKLITK [RPtag(small) Cd4]: the affinity, expressed as Kd, was 1 nM. The Kd values of the last two molecules are within 1.5-fold of each other.

RhodamineB-KIPNFIPAELKLITKENVQ [RPtag(small) Nd2]: binding was put at a Kd of 0.067 nM.

Molecule RhodamineB-GEKIPNFIPAELKLITKENV [RPtag(small) Cd1] had a Kd of 0.55 nM.

RhodamineB-GEKIPNFIPAELKLITKEN [RPtag(small) Cd2] gave a Kd of 1.1 nM.

RhodamineB-EKIPNFIPAELKLITKENVQ [RPtag(small) Nd1] returned a Kd of 0.25 nM. Against the preceding molecule, the Kd is about 4.4-fold lower.

The next assay shares this target. As to the kind of experiment: calculated from koff and Kd.
With RhodamineB-GEKIPNFIPAELKLITKE [RPtag(small) Cd3], the kon is 1.83e+06 M⁻¹ s⁻¹.

As for RhodamineB-GAKIPNFIPAELKLITKENVQ [RPtag(small) e2a], the kon was 850000 M⁻¹ s⁻¹.

As for RhodamineB-GEKIPNFIPAELKLATKENVQ [RPtag(small) i15a], the kon was 4.17e+06 M⁻¹ s⁻¹.

Turning to RhodamineB-GEKAPNFIPAELKLITKENVQ [RPtag(small) i4a], the kon was 400000 M⁻¹ s⁻¹.

Take RhodamineB-GEKIPAFIPAELKLITKENVQ [RPtag(small) n6a]: the kon was 75000 M⁻¹ s⁻¹.

On to RhodamineB-GEKIPNFIAAELKLITKENVQ [RPtag(small) p9a], for which the kon is 233000 M⁻¹ s⁻¹.

Turning to RhodamineB-GEKIPNFIPAELKLIAKENVQ [RPtag(small) t16a], the kon was 1.25e+06 M⁻¹ s⁻¹.

For RhodamineB-GEKIPNFIPAELKLITKANVQ [RPtag(small) e18a], the kon is 2.67e+06 M⁻¹ s⁻¹.

Turning to RhodamineB-GEKIPNAIPAELKLITKENVQ [RPtag(small) f7a], the kon was 517000 M⁻¹ s⁻¹.

In the case of RhodamineB-GEKIPNFAPAELKLITKENVQ [RPtag(small) i8a], the kon was 1.43e+06 M⁻¹ s⁻¹.

Turning to B1, the kon was 583000 M⁻¹ s⁻¹.

B2: the kon was 1.13e+06 M⁻¹ s⁻¹.

As for RhodamineB-GEKIPNFIPAEAKLITKENVQ [RPtag(small) l12a], the kon was 717000 M⁻¹ s⁻¹.

Consider RhodamineB-GEKIPNFIPAALKLITKENVQ [RPtag(small) e11a], for which the kon was 76700 M⁻¹ s⁻¹.

On to RhodamineB-GEKIPNFIPAELKLITK [RPtag(small) Cd4], for which the kon is 3.67e+06 M⁻¹ s⁻¹.

In the case of RhodamineB-KIPNFIPAELKLITKENVQ [RPtag(small) Nd2], the kon is 883000 M⁻¹ s⁻¹.

As to RhodamineB-GEKIPNFIPAELKLITKENV [RPtag(small) Cd1], the kon was 183000 M⁻¹ s⁻¹.

As to RhodamineB-GEKIPNFIPAELKLITKEN [RPtag(small) Cd2], the kon was 1.63e+06 M⁻¹ s⁻¹.

For the molecule RhodamineB-EKIPNFIPAELKLITKENVQ [RPtag(small) Nd1], the kon was 567000 M⁻¹ s⁻¹.

A further assay shares this target. As to the kind of experiment: fluorescence anisotropy, competitor chase.
In the case of RhodamineB-GEKIPNFIPAELKLITKE [RPtag(small) Cd3], the koff worked out at 0.002 s⁻¹.

Molecule RhodamineB-GAKIPNFIPAELKLITKENVQ [RPtag(small) e2a] returned a koff of 8.83e-05 s⁻¹.

As to RhodamineB-GEKIPNFIPAELKLATKENVQ [RPtag(small) i15a], the koff was 0.0183 s⁻¹.

In turn, RhodamineB-GEKAPNFIPAELKLITKENVQ [RPtag(small) i4a] gave a koff of 0.0001 s⁻¹.

Regarding RhodamineB-GEKIPAFIPAELKLITKENVQ [RPtag(small) n6a], the koff came to 2.5e-05 s⁻¹.

Turning to RhodamineB-GEKIPNFIAAELKLITKENVQ [RPtag(small) p9a], the koff was 4e-05 s⁻¹. Against the preceding molecule, the koff is about 1.6-fold higher.

As for RhodamineB-GEKIPNFIPAELKLIAKENVQ [RPtag(small) t16a], the koff was 0.00148 s⁻¹.

RhodamineB-GEKIPNFIPAELKLITKANVQ [RPtag(small) e18a] showed a koff of 0.000145 s⁻¹.

In turn, RhodamineB-GEKIPNAIPAELKLITKENVQ [RPtag(small) f7a] registered a koff of 0.00105 s⁻¹.

Take RhodamineB-GEKIPNFAPAELKLITKENVQ [RPtag(small) i8a]: the koff is 0.0015 s⁻¹. This koff and that of the molecule before are within 1.5-fold of each other.

Molecule B1 gave a koff of 5.67e-05 s⁻¹.

As to B2, the koff is 0.0002 s⁻¹.

RhodamineB-GEKIPNFIPAEAKLITKENVQ [RPtag(small) l12a] registered a koff of 0.00333 s⁻¹.

For RhodamineB-GEKIPNFIPAALKLITKENVQ [RPtag(small) e11a], the koff was 0.000112 s⁻¹.

RhodamineB-GEKIPNFIPAELKLITK [RPtag(small) Cd4] displayed a koff of 0.00367 s⁻¹.

Regarding RhodamineB-KIPNFIPAELKLITKENVQ [RPtag(small) Nd2], the koff came to 5.83e-05 s⁻¹.

RhodamineB-GEKIPNFIPAELKLITKENV [RPtag(small) Cd1] returned a koff of 0.000102 s⁻¹.

The molecule RhodamineB-GEKIPNFIPAELKLITKEN [RPtag(small) Cd2] displayed a koff of 0.00183 s⁻¹.

Turning to RhodamineB-EKIPNFIPAELKLITKENVQ [RPtag(small) Nd1], the off-rate (koff) was determined as 0.000147 s⁻¹.

Another assay shares this target. As to the kind of experiment: fluorescence anisotropy, association kinetics.
Consider RhodamineB-GEKIPNFIPAELKLITKE [RPtag(small) Cd3], for which the “Keq (S-S*)” value amounted to 3.1, the “kf (S to S*)” value is 0.014 min⁻¹ and the “kr (S* to S)” value was found to be 0.045 min⁻¹.

RhodamineB-GAKIPNFIPAELKLITKENVQ [RPtag(small) e2a]: the “Keq (S-S*)” value was determined as 1.9, the “kf (S to S*)” value amounted to 0.084 min⁻¹ and the “kr (S* to S)” value was 0.044 min⁻¹.

On to RhodamineB-GEKIPNFIPAELKLATKENVQ [RPtag(small) i15a], for which the “Keq (S-S*)” value was determined as 1.4, the “kf (S to S*)” value worked out at 0.077 min⁻¹ and the “kr (S* to S)” value came to 0.053 min⁻¹.

For the molecule RhodamineB-GEKAPNFIPAELKLITKENVQ [RPtag(small) i4a], the “Keq (S-S*)” value came out at 0.9, the “kf (S to S*)” value worked out at 0.086 min⁻¹ and the “kr (S* to S)” value was found to be 0.098 min⁻¹.

As to RhodamineB-GEKIPAFIPAELKLITKENVQ [RPtag(small) n6a], the “Keq (S-S*)” value turned out to be 1.3, the “kf (S to S*)” value was found to be 0.082 min⁻¹ and the “kr (S* to S)” value worked out at 0.068 min⁻¹.

As to RhodamineB-GEKIPNFIAAELKLITKENVQ [RPtag(small) p9a], the “Keq (S-S*)” value amounted to 2.7, the “kf (S to S*)” value came to 0.092 min⁻¹ and the “kr (S* to S)” value worked out at 0.04 min⁻¹.

On to RhodamineB-GEKIPNFIPAELKLIAKENVQ [RPtag(small) t16a], for which the “Keq (S-S*)” value worked out at 2.5, the “kf (S to S*)” value was 0.071 min⁻¹ and the “kr (S* to S)” value amounted to 0.038 min⁻¹.

For RhodamineB-GEKIPNFIPAELKLITKANVQ [RPtag(small) e18a], the “Keq (S-S*)” value was found to be 1.1, the “kf (S to S*)” value is 0.054 min⁻¹ and the “kr (S* to S)” value was 0.048 min⁻¹.

Regarding RhodamineB-GEKIPNAIPAELKLITKENVQ [RPtag(small) f7a], the “Keq (S-S*)” value stood at 2.2, the “kf (S to S*)” value turned out to be 0.08 min⁻¹ and the “kr (S* to S)” value was determined as 0.036 min⁻¹.

Consider RhodamineB-GEKIPNFAPAELKLITKENVQ [RPtag(small) i8a], for which the “Keq (S-S*)” value was 0.8, the “kf (S to S*)” value was 0.078 min⁻¹ and the “kr (S* to S)” value was determined as 0.046 min⁻¹.

Regarding B1, the “Keq (S-S*)” value turned out to be 0.8, the “kf (S to S*)” value came out at 0.087 min⁻¹ and the “kr (S* to S)” value came to 0.11 min⁻¹.

In the case of B2, the “Keq (S-S*)” value stood at 1.5, the “kf (S to S*)” value is 0.073 min⁻¹ and the “kr (S* to S)” value stood at 0.05 min⁻¹.

Take RhodamineB-GEKIPNFIPAEAKLITKENVQ [RPtag(small) l12a]: the “Keq (S-S*)” value is 1.1, the “kf (S to S*)” value turned out to be 0.089 min⁻¹ and the “kr (S* to S)” value is 0.081 min⁻¹.

Regarding RhodamineB-GEKIPNFIPAALKLITKENVQ [RPtag(small) e11a], the “Keq (S-S*)” value amounted to 1.9, the “kf (S to S*)” value came to 0.08 min⁻¹ and the “kr (S* to S)” value came out at 0.042 min⁻¹.

For the molecule RhodamineB-GEKIPNFIPAELKLITK [RPtag(small) Cd4], the “Keq (S-S*)” value was determined as 1.3, the “kf (S to S*)” value was found to be 0.014 min⁻¹ and the “kr (S* to S)” value was 0.11 min⁻¹.

Turning to RhodamineB-KIPNFIPAELKLITKENVQ [RPtag(small) Nd2], the “Keq (S-S*)” value was 0.7, the “kf (S to S*)” value turned out to be 0.063 min⁻¹ and the “kr (S* to S)” value came out at 0.086 min⁻¹.

As to RhodamineB-GEKIPNFIPAELKLITKENV [RPtag(small) Cd1], the “Keq (S-S*)” value came out at 2.5, the “kf (S to S*)” value stood at 0.1 min⁻¹ and the “kr (S* to S)” value came out at 0.042 min⁻¹.

For RhodamineB-GEKIPNFIPAELKLITKEN [RPtag(small) Cd2], the “Keq (S-S*)” value was determined as 3.5, the “kf (S to S*)” value came out at 0.15 min⁻¹ and the “kr (S* to S)” value was 0.043 min⁻¹.

For the molecule RhodamineB-EKIPNFIPAELKLITKENVQ [RPtag(small) Nd1], the “Keq (S-S*)” value is 2.7, the “kf (S to S*)” value was 0.064 min⁻¹ and the “kr (S* to S)” value amounted to 0.024 min⁻¹.
